Results on two molecules are retold here after article PMC10121563 (2023).

This assay has as its target T1, GST::OsABI5 fusion protein (Oryza sativa subsp. japonica (Rice), UniProt Q8RZ35).
T1 chain: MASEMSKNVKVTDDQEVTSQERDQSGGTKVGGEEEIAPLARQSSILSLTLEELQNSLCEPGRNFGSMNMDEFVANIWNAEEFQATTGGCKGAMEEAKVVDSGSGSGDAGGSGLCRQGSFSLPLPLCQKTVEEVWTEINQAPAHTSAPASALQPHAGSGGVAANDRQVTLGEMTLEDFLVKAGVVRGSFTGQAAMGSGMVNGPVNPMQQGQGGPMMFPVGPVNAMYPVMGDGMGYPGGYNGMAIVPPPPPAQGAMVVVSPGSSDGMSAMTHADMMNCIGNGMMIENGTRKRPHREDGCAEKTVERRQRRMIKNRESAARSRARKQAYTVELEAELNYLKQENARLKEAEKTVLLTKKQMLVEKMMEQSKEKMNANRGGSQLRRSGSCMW
Briefly: GST pull-down.

B1: MBP::OsJAZ6 fusion protein (protein)
chain: MASAKSGERGSSSFAMACSLLSRYVRQNGAAAGELGLGIRGEADANKGKETMELFPQNSGFGSEAAAVKETPDAREQEKRQLTIFYGGKVLVFDDFPAEKAKDLMQMASKSSSTAQNCVLLPSSATATVADNTKVSAVPAPASALPVAQANAPKPVRPNAADLPQARKASLHRFLEKRKDRLQAKAPYQGSPSDASPVKKELQESQPWLGLGPQVAAPDLSLRQESSQ
Consider B1, for which the binding result is on record as “binds”.

B2: MBP::OsJAZ7 fusion protein (protein)
chain: MAASARPVGVGGERATSFAMACSLLSRYVRQNGAAAAELGLGIRGEGEAPRAAPATMSLLPGEAERKKETMELFPQSAGFGQQDAITADSAADAREQEPEKRQLTIFYGGKVLVFNDFPADKAKGLMQLASKGSPVAPQNAAAPAPAAVTDNTKAPMAVPAPVSSLPTAQADAQKPARANASDMPIARKASLHRFLEKRKDRLNAKTPYQASPSDATPVKKEPESQPWLGLGPNAVVKPIERGQ
On to B2, for which the binding result is reported as “binds”.
